Target: purified hXRCC1 protein (human, UniProt P18887 1-633)
Assay: far-Western, overlay or dot blot

purified hXRCC1 protein, sequence (P18887 whole entry): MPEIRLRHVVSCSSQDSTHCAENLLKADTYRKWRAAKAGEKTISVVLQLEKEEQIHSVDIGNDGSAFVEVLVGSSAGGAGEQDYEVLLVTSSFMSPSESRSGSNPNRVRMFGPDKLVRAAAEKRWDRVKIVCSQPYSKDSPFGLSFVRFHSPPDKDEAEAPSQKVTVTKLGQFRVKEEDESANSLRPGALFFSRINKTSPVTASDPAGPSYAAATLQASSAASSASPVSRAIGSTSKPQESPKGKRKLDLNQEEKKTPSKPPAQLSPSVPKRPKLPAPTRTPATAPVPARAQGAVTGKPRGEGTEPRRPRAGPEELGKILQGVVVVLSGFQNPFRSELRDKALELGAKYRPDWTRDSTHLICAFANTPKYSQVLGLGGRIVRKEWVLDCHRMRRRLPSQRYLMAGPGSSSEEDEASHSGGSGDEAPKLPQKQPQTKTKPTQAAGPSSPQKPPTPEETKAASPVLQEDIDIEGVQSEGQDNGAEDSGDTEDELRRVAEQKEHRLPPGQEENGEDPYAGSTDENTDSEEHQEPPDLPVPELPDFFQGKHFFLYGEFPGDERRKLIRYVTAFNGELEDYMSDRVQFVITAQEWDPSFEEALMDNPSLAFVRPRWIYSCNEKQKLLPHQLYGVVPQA

B1: His-tagged p58 N-terminal domain (amino acids 1–266) (domain or fragment, human, UniProt P49643 1-266, looked up)
chain: MEFSGRKWRKLRLAGDQRNASYPHCLQFYLQPPSENISLIEFENLAIDRVKLLKSVENLGVSYVKGTEQYQSKLESELRKLKFSYRENLEDEYEPRRRDHISHFILRLAYCQSEELRRWFIQQEMDLLRFRFSILPKDKIQDFLKDSQLQFEAISDEEKTLREQEIVASSPSLSGLKLGFESIYKIPFADALDLFRGRKVYLEDGFAYVPLKDIVAIILNEFRAKLSKALALTARSLPAVQSDERLQPLLNHLSHSYTGQDYSTQG
B1: binds.
